Experimental findings from paper PMC9005580, “In silico structural, phylogenetic and drug target analysis of putrescine monooxygenase from Shewanella putrefaciens-95” (Journal of Genetic Engineering & Biotechnology, 2022) are described below.

Data set [1] addresses T1, putrescine monooxygenase (SpPMO) (Shewanella putrefaciens, UniProt A0A4D6BRL2).
T1 construct: gene pubA
T1 sequence (A0A4D6BRL2 1-505): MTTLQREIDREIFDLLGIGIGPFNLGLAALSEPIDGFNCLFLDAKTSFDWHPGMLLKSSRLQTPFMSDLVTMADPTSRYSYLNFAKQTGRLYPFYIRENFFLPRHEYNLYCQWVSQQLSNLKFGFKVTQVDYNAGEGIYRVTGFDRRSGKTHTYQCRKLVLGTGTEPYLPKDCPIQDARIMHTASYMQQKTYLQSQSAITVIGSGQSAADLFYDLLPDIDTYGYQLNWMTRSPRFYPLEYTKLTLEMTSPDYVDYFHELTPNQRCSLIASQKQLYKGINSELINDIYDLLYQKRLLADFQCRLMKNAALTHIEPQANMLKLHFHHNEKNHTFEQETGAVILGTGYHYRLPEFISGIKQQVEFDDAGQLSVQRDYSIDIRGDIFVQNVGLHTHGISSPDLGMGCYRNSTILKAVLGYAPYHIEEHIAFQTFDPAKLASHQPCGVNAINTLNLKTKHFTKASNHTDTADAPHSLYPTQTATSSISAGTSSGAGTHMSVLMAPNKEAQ
Kind of data set: Csaky iodine oxidation product-formation assay with […] enzyme; Lineweaver-Burk plots. The data set is classed as biochemical.

Substrate in data set [2]: NCCCCN
As to the kind of experiment: Michaelis-Menten kinetics, N-hydroxyl putrescine formation by Csaky iodine oxidation assay (Km). In kind it is biochemical, Shewanella putrefaciens. Conditions: FAD.

Setting [3] is: NADPH putrescine binding pocket: Pro22, Phe23, Gly26, Leu399, Gly402 and Asn406 (docking).

What is called Ki is the equilibrium dissociation constant of an inhibitor or competing ligand from its target. What is called Km is the concentration of substrate that gives half-maximal velocity. Broadly, the Vmax is the rate approached at saturating substrate. Broadly, the kcat is the number of substrate molecules converted per active site and unit of time at saturation.

Like-named read-outs stand apart in the source and are kept apart here.

`COc1cc(/C=C/C(=O)CC(=O)/C=C/c2ccc(O)c(OC)c2)ccc1O` [curcumin]: in data set [1], the Ki turned out to be 2.6 ± 0.0036 µM. `C[C@@H]1O[C@@H](Oc2ccc(CC#N)cc2)[C@H](O)[C@H](O)[C@H]1O` [niazirin]: the Ki in data set [1] (read-out: Ki) came out at 18.38 ± 0.008 µM.

B1: putrescine monooxygenase (SpPMO) (Shewanella putrefaciens) (protein)
chain: T1 sequence (A0A4D6BRL2 1-505)
On to B1, for which the Km in data set [2] (NADPH) was found to be 3.81 µM. For the same molecule, in data set [2] (setting [3]), the Vmax turned out to be 0.246 µmol/min/mg and the kcat was 0.237 s⁻¹.
